Results: patent US20110020218A1

Molecular target: constitutively active mutant (CAM) Asn119Ser CXCR4 receptor (human) (UniProt P61073)
Test: cell-based or functional assay

constitutively active mutant (CAM) Asn119Ser CXCR4 receptor (human), sequence (P61073 whole entry N119S): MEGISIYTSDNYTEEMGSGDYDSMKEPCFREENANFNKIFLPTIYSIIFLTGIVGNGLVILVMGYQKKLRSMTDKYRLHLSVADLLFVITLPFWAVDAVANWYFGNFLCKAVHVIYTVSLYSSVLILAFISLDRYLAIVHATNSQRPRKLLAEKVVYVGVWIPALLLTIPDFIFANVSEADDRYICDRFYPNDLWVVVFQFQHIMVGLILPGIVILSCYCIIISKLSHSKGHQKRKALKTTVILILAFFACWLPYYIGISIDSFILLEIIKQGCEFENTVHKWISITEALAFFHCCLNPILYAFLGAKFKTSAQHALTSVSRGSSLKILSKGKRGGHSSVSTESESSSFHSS

inhibition of SDF-1-stimulated [35S]GTPγS binding: -159% | inhibition of basal [35S]GTPγS binding: -17%
Substance: T140 (peptide)
